According to US11254722B2, “Recombinant proteins and uses thereof” (ACADEMIA SINICA, priority 2017, dated 2022):

How the values were obtained:
[1] = system: hep3B cells; assay: hep3B proliferation assay; assay type: cell-based, human
Protocol: (§1) For the proliferation assay, cells except for HUVEC were seeded at a density of 1,000 to 6,000 in 96 wells in an assay buffer of DMEM/F12 plus 0.2% BSA and 10 ug/ml transferrin. Chemical inhibitors were added after 16-20 hours after plating; IGF-1 or other growth factors or test chimeras in assay buffer were added at the time of plating or 16-20 hours after plating. 5,000 HUVEC ells were plated in poly-L-lysine coated 96 wells in M199 with 1%/FBS and HEPES. After 3 to 4 days of culture, growth was determined by incubating cells with Alamar blue for 4 to 6 hours and then the fluorescence (RFU) at 544/590 nm was read. For long term proliferation assays, cells were plated in the growth media with 5% or 10% FBS at densities of 500 to 10,000 cells per cm^2 growth area and grown for 7 to 21 days. Inhibitors and effectors were added 1-4 days after plating. Cells were exposed to cisplatin or gemcitabine for two days. Medium was renewed twice weekly. At completion, cells were fixed and then stained with Giemsa.
The human hepatoma cell line hep3B could be stimulated by many growth factors including IGF-1, IGF-2, HGF, bFGF, VEGF, and neuregulin.

[2] = system: MCF-7 breast cancer cells; assay: MCF-7 proliferation assay; assay type: cell-based; conditions: fetal bovine serum; FIG. 1, FIG. 4
Protocol: (§2) MCF-7 cells (a breast cancer cell line) were maintained in MEM (GIBCO) plus insulin and NEAA and 10% FBS (Hyclone).
as §1
We next examined the effect of 56662 (BP3/Fc) on the proliferation induced by growth factors that interacted with the IGFBP3. The proliferation of MCF-7 breast cancer cells was induced in serum-free medium by individual growth factors like IGF-1, IGF-2, EGF, TGF-a, Nrgbx, b-FGF, and amphiregulin (FIG. 1).

[3] = system: HUVEC cells; assay: HUVEC proliferation assay; assay type: cell-based
Protocol: as §2, §1
Growth factor synergism can also be observed in the proliferation of HUVEC cells.

[4] = system: HT29 cells; assay: HT29 proliferation assay; assay type: cell-based, human; conditions: FIG. 17A isobologram, FIG. 17B
Protocol: as §2, §1
The combination of drug (erlotinib and vemurafenib in hep3b and HT29 cells, respectively) and chimera can be synergistic; so, in addition to enhancing the inhibition, the chimera addition may also lower drug concentration requirements and reduce side effects.

## COc1cccc2c1C(=O)c1c(O)c3c(c(O)c1C2=O)C[C@@](O)(C(=O)CO)C[C@@H]3O[C@H]1C[C@H](N)[C@H](O)[C@H](C)O1 [doxorubicin, reference compound]
[1]; 0.01 uM doxorubicin
  proliferation of hep3B cells: greatly inhibited

B1: 80716: IGFBP3 with IGFBP6 linker-gly 6 linker-v1v2-Fc, SEQ ID NO: 16 (protein)
chain: MSEVPVARVWLVLLLLTVQVGVTAGGASSAGLGPVVRCEPCDARALAQCAPPPAVCAELVREPGCGCCLTCALSEGQPCGIYTERCGSGLRCQPSPDEARPLQALLDGRGLCPARAPAVAEENPKESKPQAGTARPQDVNRRDQQRNPGTSTTPSQPNSAGVQDTEMGPCRREMEDTLNHLKFLNVLSPRGVHIPNCDKKGFYKKKQCRPSKGRKRGFCWCVDKYGQPLPGYTTKGKEDVHCYSMQSKPARAPAVAEENPKESKPQAGTARPQDVNRRDQQRNPGTSTTPSQPNSAGVQDTEMIYIFISDTGRPFVEMYSEIPEIIHMTEGRELVIPCRVTSPNITVTLKKFPLDTLIPDGKRIIWDSRKGFIISNATYKEIGLLTCEATVNGHLYKTNYLTHRQGYRIYDVVLSPSHGIELSVGEKLVLNCTARTELNVGIDFNWEYPSSKHQHKKLVNRDLKTQSGSEMKKFLSTLTIDGVTRSDQGLYTCAASSGLMTKKNSTFVRVHEKVECPPCPAPPVAGPSVFLFPPKPKDQLMISRTPEVTCVVVDVSHEDPEVKFNWYVDGVEVHNAKTKPREEQYNSTYRVVSVLTVLHQDWLNGKEYKCKVSNKGLPSSIEKTISKAKGQPREPQVYTLPPSREEMTKNQVSLTCLVKGFYPSDIAVEWESNGQPENNYKTTPPVLDSDGSFFLYSKLTVDKSRWQQGNVFSCSVMHEGLHNHYTQKSLSLSPGK
[2]
  inhibition of FBS-induced proliferation of MCF-7: unable to inhibit

B2: D2V1V2Fc: IGFBP3 with IGFBP3 linker deletion 2-gly 3 linker-v1v2-Fc, SEQ ID NO: 17 (protein)
chain: MSEVPVARVWLVLLLLTVQVGVTAGHHHHHHGASSAGLGPVVRCEPCDARALAQCAPPPAVCAELVREPGCGCCLTCALSEGQPCGIYTERCGSGLRCQPSPDEARPLQALLDGRGLCVNASAVSRPAPPAPGNASESEEDRSAGSVESPSVSSTHRVSDPKFHPKGHAKDSQRYKVDYESQSTDTQNFSSESKRETEYGPCRREMEDTLNHLKFLNVLSPRGVHIPNCDKKGFYKKKQCRPSKGRKRGFCWCVDKYGQPLPGYTTKGKEDVHCYSMQSKAPPAPGNASESEEDRSAGIYIFISDTGRPFVEMYSEIPEIIHMTEGRELVIPCRVTSPNITVTLKKFPLDTLIPDGKRIIWDSRKGFIISNATYKEIGLLTCEATVNGHLYKTNYLTHRQGYRIYDVVLSPSHGIELSVGEKLVLNCTARTELNVGIDFNWEYPSSKHQHKKLVNRDLKTQSGSEMKKFLSTLTIDGVTRSDQGLYTCAASSGLMTKKNSTFVRVHEKVECPPCPAPPVAGPSVFLFPPKPKDQLMISRTPEVTCVVVDVSHEDPEVKFNWYVDGVEVHNAKTKPREEQYNSTYRVVSVLTVLHQDWLNGKEYKCKVSNKGLPSSIEKTISKAKGQPREPQVYTLPPSREEMTKNQVSLTCLVKGFYPSDIAVEWESNGQPENNYKTTPPVLDSDGSFFLYSKLTVDKSRWQQGNVFSCSVMHEGLHNHYTQKSLSLSPGK
[3]; FIG. 14
  inhibition of HUVEC proliferation stimulated by IGF-1, bFGF, HGF, VEGF, and combinations: inhibited
[4]
  inhibition with vemurafenib in HT29 cells: synergistic inhibition

B3: 3(del2)3: IGFBP3 with IGFBP3 linker deletion 2-Fc, SEQ ID NO: 11 (protein)
chain: MSEVPVARVWLVLLLLTVQVGVTAGGASSAGLGPVVRCEPCDARALAQCAPPPAVCAELVREPGCGCCLTCALSEGQPCGIYTERCGSGLRCQPSPDEARPLQALLDGRGLCVNASAVSRPAPPAPGNASESEEDRSAGSVESPSVSSTHRVSDPKFHPKGHAKDSQRYKVDYESQSTDTQNFSSESKRETEYGPCRREMEDTLNHLKFLNVLSPRGVHIPNCDKKGFYKKKQCRPSKGRKRGFCWCVDKYGQPLPGYTTKGKEDVHCYSMQSKVECPPCPAPPVAGPSVFLFPPKPKDQLMISRTPEVTCVVVDVSHEDPEVKFNWYVDGVEVHNAKTKPREEQYNSTYRVVSVLTVLHQDWLNGKEYKCKVSNKGLPSSIEKTISKAKGQPREPQVYTLPPSREEMTKNQVSLTCLVKGFYPSDIAVEWESNGQPENNYKTTPPVLDSDGSFFLYSKLTVDKSRWQQGNVFSCSVMHEGLHNHYTQKSLSLSPGK
[3]; FIG. 6, FIG. 13
  inhibition of VEGF-induced proliferation of HUVEC cells: did not inhibit
[3]; FIG. 13
  inhibition of HUVEC proliferation induced by IGF, bFGF, HGF or a combination: inhibited

B4: 105795: IGFBP3 with IGFBP4 linker deletion-Fc, SEQ ID NO: 9 (protein)
chain: MSEVPVARVWLVLLLLTVQVGVTAGGASSAGLGPVVRCEPCDARALAQCAPPPAVCAELVREPGCGCCLTCALSEGQPCGIYTERCGSGLRCQPSPDEARPLQALLDGRGLCMELAEIEAIQESLQPSDKDEGDHPNNSFSPCSAHDRRCLQETEYGPCRREMEDTLNHLKFLNVLSPRGVHIPNCDKKGFYKKKQCRPSKGRKRGFCWCVDKYGQPLPGYTTKGKEDVHCYSMQSKVECPPCPAPPVAGPSVFLFPPKPKDQLMISRTPEVTCVVVDVSHEDPEVKFNWYVDGVEVHNAKTKPREEQYNSTYRVVSVLTVLHQDWLNGKEYKCKVSNKGLPSSIEKTISKAKGQPREPQVYTLPPSREEMTKNQVSLTCLVKGFYPSDIAVEWESNGQPENNYKTTPPVLDSDGSFFLYSKLTVDKSRWQQGNVFSCSVMHEGLHNHYTQKSLSLSPGK
[2]
  inhibition of FBS-induced proliferation of MCF-7: unable to inhibit

B5: met3con: SEQ ID NO: 32; Met3con is the met3 domain Fc (protein)
chain: MSEVPVARVWLVLLLLTVQVGVTAGAAASGGGSGGGGSGGGGSGGGGDPIVYEIHPTKSFISTWWKEPLNIVSFLFCFASGGSTITGVGKNLNSVSVPRMVINVHEAGRNFTVACQHRSNSEIICCTTPSLQQLNLQLPLKTKAFFMLDGILSKYFDLIYVHSGGGSGGGTGVECPPCPAPPVAGPSVFLFPPKPKDQLMISRTPEVTCVVVDVSHEDPEVKFNWYVDGVEVHNAKTKPREEQYNSTYRVVSVLTVLHQDWLNGKEYKCKVSNKGLPSSIEKTISKAKGQPREPQVYTLPPSREEMTKNQVSLTCLVKGFYPSDIAVEWESNGQPENNYKTTPPVLDSDGSFFLYSKLTVDKSRWQQGNVFSCSVMHEGLHNHYTQKSLSLSPGK
[1]; Table 10
  IC50, FBS-stimulated proliferation of hep3B cells: no inh
  IC50, HGF-stimulated proliferation of hep3B cells: no inh
  IC50, IGF1-stimulated proliferation of hep3B cells: No inh
  IC50, bFGF-stimulated proliferation of hep3B cells: no inh
  IC50, nrg-stimulated proliferation of hep3B cells: No inh
